Assay results published in paper PMC5034038.

Assays:
GFP-CaV2.2-HA (rabbit) = GFP-CaV2.2-HA (rabbit) (UniProt Q05152)
[1] = molecular target: GFP-CaV2.2 K-R-HA (rabbit) (UniProt Q05152)

## CaVβ1b-GFP (from UniProt P54283 1-597) (natural protein)
GFP-CaV2.2-HA (rabbit)
  Gmax (whole cell conductance) from Boltzmann fits, whole cell patch clamp of tsA-201 cells with CaVα2δ-1, 1 mM Ba2+: 7.7 nS/pF
  IBa current density at +5 mV, whole cell patch clamp of tsA-201 cells with CaVα2δ-1, 1 mM Ba2+: 277 pA/pF
  V50 of activation from Boltzmann fits of current density-voltage relationships, whole cell patch clamp of tsA-201 cells with CaVα2δ-1, 1 mM Ba2+: -4.7 mV
[1]
  Gmax (whole cell conductance) from Boltzmann fits, whole cell patch clamp of tsA-201 cells with CaVα2δ-1, 1 mM Ba2+: 4.5 nS/pF
  IBa current density at +5 mV, whole cell patch clamp of tsA-201 cells with CaVα2δ-1, 1 mM Ba2+: 148 pA/pF
  V50 of activation from Boltzmann fits of current density-voltage relationships, whole cell patch clamp of tsA-201 cells with CaVα2δ-1, 1 mM Ba2+: 1.3 mV
